Experimental data taken from publication PMC5591277, “Usb1 controls U6 snRNP assembly through evolutionarily divergent cyclic phosphodiesterase activities”.

Columns and labels:
Lsm2-8 complex [1] = target: T1, Lsm2-8 complex (Saccharomyces cerevisiae, UniProt P38203;P57743;P40070;P40089;Q06406;P53905;P47093 …); assay: fluorescence polarization; Hill 1.6; EMSA: 5 nM Cy3-U6, 100 mM KCl, 20% sucrose, 20 mM bis-tris/10 mM HCl, 1 mM EDTA, 1 mM TCEP, 0.01% Triton X-100, 0.1 mg/mL tRNA, 0.01 mg/mL heparin, 0.1 mg/mL BSA, room temp 20 min (gel 4 C); FP: 0.25-1 nM FAM-RNA, 100 mM NaCl, 20 mM bis-tris/10 mM HCl, 1 mM TCEP, 5% glycerol, 1 mM EDTA, yeast tRNA, BSA; details: protein: recombinant; tags: His on Lsm8 and GST on Lsm6, removed by TEV; copies: 1;1;1;1;1;1;1; label: 5' 6-FAM
T1 sequence 1: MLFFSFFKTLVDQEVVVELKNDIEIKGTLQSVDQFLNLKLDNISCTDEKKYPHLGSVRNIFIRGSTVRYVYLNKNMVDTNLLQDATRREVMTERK
T1 sequence 2: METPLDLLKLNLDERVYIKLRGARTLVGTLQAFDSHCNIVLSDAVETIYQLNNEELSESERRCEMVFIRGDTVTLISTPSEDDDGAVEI
T1 sequence 3: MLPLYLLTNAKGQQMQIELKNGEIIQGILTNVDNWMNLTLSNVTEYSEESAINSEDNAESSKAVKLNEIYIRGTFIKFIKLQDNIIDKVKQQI
T1 sequence 4: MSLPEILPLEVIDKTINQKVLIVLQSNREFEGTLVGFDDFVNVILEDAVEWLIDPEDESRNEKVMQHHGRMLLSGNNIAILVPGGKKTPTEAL
T1 sequence 5: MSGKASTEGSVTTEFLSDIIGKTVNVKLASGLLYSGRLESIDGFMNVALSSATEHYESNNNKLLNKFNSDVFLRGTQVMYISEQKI
T1 sequence 6: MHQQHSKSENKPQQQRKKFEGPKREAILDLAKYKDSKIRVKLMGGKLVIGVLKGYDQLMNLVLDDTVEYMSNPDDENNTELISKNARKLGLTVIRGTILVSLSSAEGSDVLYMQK
T1 sequence 7: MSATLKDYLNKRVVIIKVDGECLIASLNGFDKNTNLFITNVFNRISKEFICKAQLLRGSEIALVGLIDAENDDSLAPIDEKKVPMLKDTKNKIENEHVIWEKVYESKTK

Lhp1 (yeast La protein) [2] = target: T2, Lhp1 (yeast La protein) (Saccharomyces cerevisiae, UniProt P33399 1-275); assay: fluorescence polarization; Hill 1.27; EMSA: 5 nM Cy3-U6, 100 mM KCl, 20% sucrose, 20 mM bis-tris/10 mM HCl, 1 mM EDTA, 1 mM TCEP, 0.01% Triton X-100, 0.1 mg/mL tRNA, 0.01 mg/mL heparin, 0.1 mg/mL BSA, room temp 20 min (gel 4 C); FP: 0.25-1 nM FAM-RNA, 100 mM NaCl, 20 mM bis-tris/10 mM HCl, 1 mM TCEP, 5% glycerol, 1 mM EDTA, yeast tRNA, BSA; details: protein: recombinant; tags: N-terminal His8-TEV; label: 5' 6-FAM
T2 sequence: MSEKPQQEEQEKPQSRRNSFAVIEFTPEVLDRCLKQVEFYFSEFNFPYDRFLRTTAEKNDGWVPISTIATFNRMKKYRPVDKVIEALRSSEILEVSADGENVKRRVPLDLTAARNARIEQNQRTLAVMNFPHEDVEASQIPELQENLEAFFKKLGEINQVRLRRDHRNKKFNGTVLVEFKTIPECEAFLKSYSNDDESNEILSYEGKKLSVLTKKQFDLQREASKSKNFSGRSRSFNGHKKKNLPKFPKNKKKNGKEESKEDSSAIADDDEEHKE

Lsm2-8 complex [3] = target: T1, Lsm2-8 complex; assay: fluorescence polarization; Hill 1.0; EMSA: 5 nM Cy3-U6, 100 mM KCl, 20% sucrose, 20 mM bis-tris/10 mM HCl, 1 mM EDTA, 1 mM TCEP, 0.01% Triton X-100, 0.1 mg/mL tRNA, 0.01 mg/mL heparin, 0.1 mg/mL BSA, room temp 20 min (gel 4 C); FP: 0.25-1 nM FAM-RNA, 100 mM NaCl, 20 mM bis-tris/10 mM HCl, 1 mM TCEP, 5% glycerol, 1 mM EDTA, yeast tRNA, BSA; details: protein: recombinant; tags: His on Lsm8 and GST on Lsm6, removed by TEV; copies: 1;1;1;1;1;1;1; label: 5' 6-FAM
Lhp1 (yeast La protein) [4] = target: T2, Lhp1 (yeast La protein); assay: fluorescence polarization; Hill 1.11; EMSA: 5 nM Cy3-U6, 100 mM KCl, 20% sucrose, 20 mM bis-tris/10 mM HCl, 1 mM EDTA, 1 mM TCEP, 0.01% Triton X-100, 0.1 mg/mL tRNA, 0.01 mg/mL heparin, 0.1 mg/mL BSA, room temp 20 min (gel 4 C); FP: 0.25-1 nM FAM-RNA, 100 mM NaCl, 20 mM bis-tris/10 mM HCl, 1 mM TCEP, 5% glycerol, 1 mM EDTA, yeast tRNA, BSA; details: protein: recombinant; tags: N-terminal His8-TEV; label: 5' 6-FAM
Lsm2-8 complex [5] = target: T1, Lsm2-8 complex; assay: fluorescence polarization; Hill 1.3; EMSA: 5 nM Cy3-U6, 100 mM KCl, 20% sucrose, 20 mM bis-tris/10 mM HCl, 1 mM EDTA, 1 mM TCEP, 0.01% Triton X-100, 0.1 mg/mL tRNA, 0.01 mg/mL heparin, 0.1 mg/mL BSA, room temp 20 min (gel 4 C); FP: 0.25-1 nM FAM-RNA, 100 mM NaCl, 20 mM bis-tris/10 mM HCl, 1 mM TCEP, 5% glycerol, 1 mM EDTA, yeast tRNA, BSA; details: protein: recombinant; tags: His on Lsm8 and GST on Lsm6, removed by TEV; copies: 1;1;1;1;1;1;1; label: 5' 6-FAM

B1: U6 95-112 3'OH (ssRNA)
RNA: AGAGAUUUAUUUCGUUUU
modifications: 2',3'-cis-diol end
Kd (Lsm2-8 complex [1]): 85 ± 1 nM
Kd (Lhp1 (yeast La protein) [2]): 43 ± 1 nM

B2: U6 95-112+1U 3'OH (ssRNA)
RNA: AGAGAUUUAUUUCGUUUUU
modifications: 2',3'-cis-diol end
Kd (Lsm2-8 complex [3]): 17 ± 1 nM
Kd (Lhp1 (yeast La protein) [4]): 29 ± 1 nM

B3: U6 95-112 3'P (ssRNA)
RNA: AGAGAUUUAUUUCGUUUU
modifications: 3' phosphate
Kd (Lsm2-8 complex [5]): 10 ± 1 nM

B4: U6 95-112+1U 3'P (ssRNA)
RNA: AGAGAUUUAUUUCGUUUUU
modifications: 3' phosphate
Kd (Lsm2-8 complex [3]): 3 ± 1 nM
